Assay results published in IntAct's records for PubMed 22842346.

B1: High mobility group protein B1 (Mus musculus), P63158 (parent)
chain: MGKGDPKKPRGKMSSYAFFVQTCREEHKKKHPDASVNFSEFSKKCSERWKTMSAKEKGKFEDMAKADKARYEREMKTYIPPKGETKKKFKDPNAPKRPPSAFFLFCSEYRPKIKGEHPGLSIGDVAKKLGEMWNNTAADDKQPYEKKAAKLKEKYEKDIAAYRAKGKPDAAKKGVVKAEKSKKKKEEEDDEEDEEDEEEEEEEEDEDEEEDDDDE

Variants of: B1
Settings: with havr2_mouse Havcr2, Q8VIM0
Chain of havr2_mouse Havcr2, Q8VIM0 (Q8VIM0 whole entry): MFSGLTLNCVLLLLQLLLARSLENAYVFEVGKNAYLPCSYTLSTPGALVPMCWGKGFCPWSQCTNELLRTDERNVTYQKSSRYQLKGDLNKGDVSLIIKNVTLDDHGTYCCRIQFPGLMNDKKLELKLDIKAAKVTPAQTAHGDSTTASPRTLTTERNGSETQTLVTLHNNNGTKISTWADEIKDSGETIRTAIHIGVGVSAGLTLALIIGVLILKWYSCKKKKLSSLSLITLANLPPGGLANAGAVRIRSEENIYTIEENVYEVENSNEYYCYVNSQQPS

Variant	effect of a mutation on the interaction
MGKGDPKKPRGKMSSYAFFVQTCREEHKKKHPDASVNFSEFSKKCSERWKTMSAKEKGKFEAMAKADKARYEREMKTYIPPKGETKKKFKDPNAPKRPPSAFFLFCSEYRPKIKGEHPGLSIGDVAKKLGEMWNNTAADDKQPYEKKAAKLKEKYEKDIAAYRAKGKPDAAKKGVVKAEKSKKKKEEEDDEEDEEDEEEEEEEEDEDEEEDDDDE [D62A]	decreasing interaction
